Here are results for 4 proteins from article PMC4598101, “Growth of Chitinophaga pinensis on Plant Cell Wall Glycans and Characterisation of a Glycoside Hydrolase Family 27 β-L-Arabinopyranosidase Implicated in Arabinogalactan Utilisation” (PLoS ONE, 2015).

A word on the Km: it is the concentration of substrate that gives half-maximal velocity. What is called kcat is the number of substrate molecules converted per active site and unit of time at saturation. Broadly, the kcat/Km is the second-order rate constant that governs catalysis at low substrate concentration.

Substrate in series [1]: O=[N+]([O-])c1ccc(O[C@H]2OC[C@H](O)[C@H](O)[C@H]2O)cc1
The series is described as follows: continuous pNP release, spectrophotometer. The series is classed as biochemical, Chitinophaga pinensis. Particulars: 50 mM sodium citrate pH 5.0, 30 °C. The source says:
(§1) continuous pNP release, spectrophotometer on CpArap27 (Cpin_5740 gene product)

Substrate in series [2]: O=[N+]([O-])c1ccc(O[C@H]2O[C@H](CO)[C@H](O)[C@H](O)[C@H]2O)cc1
Nature of the series: continuous pNP release, spectrophotometer. Particulars: 50 mM sodium citrate pH 5.0, 30 °C. The series is classed as biochemical, Chitinophaga pinensis.
Excerpt: as §1

B1: CpArap27 (Cpin_5740 gene product) (Chitinophaga pinensis DSM 2588) (protein)
chain: AQQKKDFHSWAPTPPMGWNSWDCYGPTVTEAEVKANADYMASHLKSSGWQYIIVDIRWYVANDKSHGYNETDPAYNIDAYGRFQPAVNRFPSAANGKGFKPLADYIHSKGLKFGIHIMRGVPVVAVNKKLPVKGTNVTAADIYSKQDQCKWLHDMYTIVPDKTGAQEYYNSLFDMYAAWGLDFVKVDDLSAPIYFTEEIEMIRKAITRTGRKILLSTSPGETPIAQGAHVQQHANMWRTVDDFWDNWPHLKDHFEVFDRWNKWRTTGAWPDGDMLPLGHIGIRAERGQPRMTSFTKDEQYTLMTLWTIFRSPLMFGGNLPDNDPFTLSLLTNKQVLQVLNNSSNNRPVFNDKDKAAWTADMPGKSAKYLAVFNKADKDAAAVNVDLSEIGIKGSCTITDLWTGKVLGKFTGSFAPQINPHGAGLYKVTP
notes: ~48 kDa; monomer by SEC
Regarding B1, in series [1], the Km worked out at 12.9 ± 3.27 mM, the kcat amounted to 32.3 ± 3.58 s⁻¹ and the kcat/Km worked out at 2500 M⁻¹ s⁻¹.

B2: CpArap27 (Cpin_5740 gene product) (Chitinophaga pinensis DSM 2588; I73C) (protein)
chain: AQQKKDFHSWAPTPPMGWNSWDCYGPTVTEAEVKANADYMASHLKSSGWQYIIVDCRWYVANDKSHGYNETDPAYNIDAYGRFQPAVNRFPSAANGKGFKPLADYIHSKGLKFGIHIMRGVPVVAVNKKLPVKGTNVTAADIYSKQDQCKWLHDMYTIVPDKTGAQEYYNSLFDMYAAWGLDFVKVDDLSAPIYFTEEIEMIRKAITRTGRKILLSTSPGETPIAQGAHVQQHANMWRTVDDFWDNWPHLKDHFEVFDRWNKWRTTGAWPDGDMLPLGHIGIRAERGQPRMTSFTKDEQYTLMTLWTIFRSPLMFGGNLPDNDPFTLSLLTNKQVLQVLNNSSNNRPVFNDKDKAAWTADMPGKSAKYLAVFNKADKDAAAVNVDLSEIGIKGSCTITDLWTGKVLGKFTGSFAPQINPHGAGLYKVTP
notes: ~48 kDa; monomer by SEC
For B2, in series [1], the Km is listed as 21.5 ± 10.4 mM, the kcat is 0.403 ± 0.119 s⁻¹ and the kcat/Km was found to be 18.8 M⁻¹ s⁻¹.

B3: CpArap27 (Cpin_5740 gene product) (Chitinophaga pinensis DSM 2588; I73E) (protein)
chain: AQQKKDFHSWAPTPPMGWNSWDCYGPTVTEAEVKANADYMASHLKSSGWQYIIVDERWYVANDKSHGYNETDPAYNIDAYGRFQPAVNRFPSAANGKGFKPLADYIHSKGLKFGIHIMRGVPVVAVNKKLPVKGTNVTAADIYSKQDQCKWLHDMYTIVPDKTGAQEYYNSLFDMYAAWGLDFVKVDDLSAPIYFTEEIEMIRKAITRTGRKILLSTSPGETPIAQGAHVQQHANMWRTVDDFWDNWPHLKDHFEVFDRWNKWRTTGAWPDGDMLPLGHIGIRAERGQPRMTSFTKDEQYTLMTLWTIFRSPLMFGGNLPDNDPFTLSLLTNKQVLQVLNNSSNNRPVFNDKDKAAWTADMPGKSAKYLAVFNKADKDAAAVNVDLSEIGIKGSCTITDLWTGKVLGKFTGSFAPQINPHGAGLYKVTP
notes: ~48 kDa; monomer by SEC
On to B3, for which, in series [2], the Km is recorded as 35.6 ± 15.2 mM, the kcat amounted to 0.105 ± 0.0518 s⁻¹ and the kcat/Km was found to be 2.95 M⁻¹ s⁻¹. Further, in series [1], the Km amounted to 6.56 ± 3.39 mM, the kcat was found to be 0.528 ± 0.115 s⁻¹ and the kcat/Km stood at 80.5 M⁻¹ s⁻¹.

B4: CpArap27 (Cpin_5740 gene product) (Chitinophaga pinensis DSM 2588; I73D) (protein)
chain: AQQKKDFHSWAPTPPMGWNSWDCYGPTVTEAEVKANADYMASHLKSSGWQYIIVDDRWYVANDKSHGYNETDPAYNIDAYGRFQPAVNRFPSAANGKGFKPLADYIHSKGLKFGIHIMRGVPVVAVNKKLPVKGTNVTAADIYSKQDQCKWLHDMYTIVPDKTGAQEYYNSLFDMYAAWGLDFVKVDDLSAPIYFTEEIEMIRKAITRTGRKILLSTSPGETPIAQGAHVQQHANMWRTVDDFWDNWPHLKDHFEVFDRWNKWRTTGAWPDGDMLPLGHIGIRAERGQPRMTSFTKDEQYTLMTLWTIFRSPLMFGGNLPDNDPFTLSLLTNKQVLQVLNNSSNNRPVFNDKDKAAWTADMPGKSAKYLAVFNKADKDAAAVNVDLSEIGIKGSCTITDLWTGKVLGKFTGSFAPQINPHGAGLYKVTP
notes: ~48 kDa; monomer by SEC
With B4, in series [2], the Km worked out at 35.3 ± 11.9 mM and the kcat/Km worked out at 0.00585 M⁻¹ s⁻¹. For the same protein, in series [1], the Km worked out at 8.63 ± 2.14 mM, the kcat is 0.00718 ± 0.000775 s⁻¹ and the kcat/Km came to 0.832 M⁻¹ s⁻¹.
